Assay results taken from patent publication US20230071609A1 (Genentech, published 2023).

Assays:
[1] = target: T1, gD-SRA-ID-GPI (construct e) (human, UniProt O14791 305-398, C-terminal GPI anchor); test: flow cytometry, live CHO cells expressing the construct, 5 µg/ml
T1 sequence: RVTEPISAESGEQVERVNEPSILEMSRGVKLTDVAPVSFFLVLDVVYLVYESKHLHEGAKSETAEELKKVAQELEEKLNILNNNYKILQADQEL
Method: Stably transfected live (not fixed or permeabilized) CHO cells expressing the gD-iAPOL1-GPI constructs indicated in FIGS. 1A-1E after induction with 5 μg/ml dox for 48 h, showing differential antibody binding at 5 μg/ml. […] White histograms are Alexa488 anti-mouse or anti-rabbit secondaries only; grey histograms are the anti-APOL1 signals. A representative histogram for each category is shown: 3.7D6 for PFD; 3.3A8 for C-terminus of MAD, 3.5H9 for N-terminus of MAD; 3.1C1 for SRA-ID; 3.2D4 for multi-domain; 3.3F7 for conformational and 3.5B10 for FACS-negative (FACS-ve). The prefix 3 in the name of the antibodies denotes murine monoclonals from Method #3 (as shown in Example 1 below); other antibodies (not illustrated here) starting with the number 4 are murine monoclonals derived from mice additionally boosted with SRA-ID protein; and prefix 5-named antibodies are rabbit monoclonals from Method #5 (Table 2A; and Example 2). […] The Sigma polyclonal (HPA018885, raised to aa 263-387) and the Epitomics rabbit monoclonal (EPR2907(2), raised to an undisclosed peptide) are SRA-ID binders. […]
Cells were harvested with 5 mM EDTA in PBS, washed once with growth media and twice with PBS. […] Signals were read in a FACSCalibur3 (Becton Dickinson), with the exception of FIG. 8A and FIG. 14, which used a FACSCelesta, and data was analyzed using FlowJo v8.4.5.

APOL6-myc-FLAG = target: T2, APOL6-myc-FLAG (human, UniProt Q9BWW8 1-343); test: immunofluorescence on transfected COS cells; grade (also no cross-reaction by western blot)
T2 construct: whole, on cells; In fixed, permeabilized transfected COS cells; untagged APOL6 in the western blots; not shown: C-terminal myc-FLAG tag
T2 sequence (looked up): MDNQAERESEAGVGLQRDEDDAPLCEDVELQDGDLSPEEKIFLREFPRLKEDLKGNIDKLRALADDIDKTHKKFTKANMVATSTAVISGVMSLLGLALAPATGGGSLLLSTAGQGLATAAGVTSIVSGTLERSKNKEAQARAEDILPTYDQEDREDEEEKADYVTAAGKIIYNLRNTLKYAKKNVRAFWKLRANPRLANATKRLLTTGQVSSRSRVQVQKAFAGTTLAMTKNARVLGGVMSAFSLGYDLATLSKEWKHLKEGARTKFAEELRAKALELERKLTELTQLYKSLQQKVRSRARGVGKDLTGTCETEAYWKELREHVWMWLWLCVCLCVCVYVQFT
From the text: COS cells were transfected as in FIG. 31A except APOL1 and APOL2 were also C-terminally myc-FLAG tagged. Overlays of APOL with epitope tags: either mouse anti-FLAG-M2 or mouse anti-myc 9E10 for anti-APOL1 rabmabs; or rabbit anti-Myc 71D10 in conjunction with mouse anti-APOL1. Signals indicate the two antibodies overlap (i.e. anti-APOL1 cross-reacts with that APOL); signals (epitope tag only) indicate no cross-reactivity. Alexa647 anti-rabbit or mouse were used for the tags to rule out the possibility that any colocalization was a bleed-through artifact. Sparsely transfected areas were imaged to permit evaluation of background staining in adjacent untransfected cells—DAPI nuclear staining identifies both untransfected and transfected cell nuclei. […] Note that none of the antibodies cross-reacted with the more distantly related APOL6. *, APOL2-myc-FLAG is presumably misfolded, since it is not as cross-reactive as untagged APOL2 (compare FIG. 31A) with several antibodies. Commercial antibodies are Sigma HPA018885, Epitomics EPR2907 (2) (Epito) and Proteintech 11486-2-AP (Ptech).
Cells were plated on LabTekII (Nalge Nunc 154534) slides and fixed at 70-100% confluency. For mAb screening, cells were fixed/permeabilized for 5 min in −20° C. methanol (EMD MX0485-6). […]

B1: antibody 3.1C1 (antibody, V domains shown)
VH: QVQLQQSGPELVKPGASVRISCKASGYTFTNYFIHWVKQRPGQGLEWIGWINPGNLNTKYTEEFKGKATLTADKSSSTAYIQLNSLTSEDSAVYFCVNGNPFVYWGQGTLVTVSA
VL: DIVMTQSPSSLTVIAGEKVTLNCKSSQSLLNSGNQKKYLTWLQQKPGQPPKLLIYWTSTRDSGVPDRFTGSGSGTDFTLTISSVQAEDLAVYYCQNDYSYPLTFGAGTKLEIKR
notes: Mouse mAb, cloned as murine IgG2a LALAPG; not written separately; also called SRA-ID mAb 3.1C1
B1: binds [1].

B2: antibody 4.12E5 (antibody, V domains shown)
VH: EVQLQQSGPELVKTGASVKISCKASGYSFTGYFMHWVKQSHGKSLEWIGYISCYNGASVYNQRFKGKATFTIDTSSSTAYMQFNSLTSEDSAVYYCARDVLRYPRYAVDYWGQGTSVTVSS
VL: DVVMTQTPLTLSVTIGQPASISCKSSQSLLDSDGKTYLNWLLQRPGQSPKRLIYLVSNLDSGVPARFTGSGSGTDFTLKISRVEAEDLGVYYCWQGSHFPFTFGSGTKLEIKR
notes: Mouse mAb, cloned as murine IgG2a LALAPG
B2: no binding (tested: 1 µg/ml) (APOL6-myc-FLAG).
